# Like-named read-outs stand apart in the source and are kept apart here.
# What was measured:
# HLA-A*0301 (human) [1] = assay: competition with 125I-labelled standard probe peptide for purified HLA-A*0301, gel filtration
# HLA-A*1101 (human) [2] = assay: competition with 125I-labeled standard peptide for purified HLA-A*1101, gel filtration; conditions: for relative binding ratio (A*1101): scale: ratio
# HLA-A*0301 (human) [3] = assay: competition with a 125I-labelled standard peptide for purified HLA-A*0301, bound and free separated by gel filtration
# HLA-A*1101 (human) [4] = assay: competition with 125I-labeled standard probe peptide for purified HLA-A*1101, gel filtration
# [5] = molecular target: purified HLA-A*0201 molecules (human)
# HLA-A*0201 (human) [6] = assay: competition with 125I-labeled standard probe peptide for purified HLA-A*0201, gel filtration
# HLA-A*0301 (human) [7] = assay: competition with 125I-labeled standard peptide for purified HLA-A*0301, gel filtration
# HLA-A*1101 (human) [8] = assay: competition with 125I-labelled probe peptide for purified HLA, gel filtration; conditions: scale: ratio
# HLA-A*0301 (human) [9] = assay: as above; conditions: scale: ratio
# HLA-A*0201 (human) [10] = assay: competition with 125I-labelled standard peptide for purified HLA, gel filtration
# HLA-A*1101 (human) [11] = assay: as above
# HLA-A*0301 (human) [12] = assay: as above
# HLA-A*3301 (human) = assay: as above
# HLA-A*6801 (human) = assay: as above
# HLA-A*3101 (human) = assay: as above
# HLA-A*0301 (human) [13] = assay: competition with 125I-labelled standard peptide for purified HLA-A*0301, gel filtration
# HLA-A*1101 (human) [14] = assay: inhibition of 125I-labeled standard peptide binding to purified HLA-A*1101, gel filtration
# HLA-A*0203 (human) = assay: competition with 125I-labelled standard peptide on purified HLA, gel filtration; conditions: remark: other sources report otherwise
# HLA-A*0206 (human) = assay: as above; conditions: remark: other sources report otherwise
# HLA-A*0201 (human) [15] = assay: as above; conditions: remark: other sources report otherwise
# HLA-A*2402 (human) = assay: inhibition of 125I-labelled standard peptide binding to purified HLA-A*2402, gel filtration
# HLA-A*0101 (human) [16] = molecular target: HLA-A*0101 (human)
# HLA-A*0301 (human) [17] = molecular target: HLA-A*0301 (human)
# HLA-A*0101 (human) [18] = conditions: remark: other sources report otherwise
# HLA-A*1101 (human) [19] = molecular target: HLA-A*1101 (human)
binder,measurement,setting,value
"EGTGCNGWF (modifications not checked) [HPV45 E1 peptide … (position 10, 9 amino acids)]",binding affinity ratio (IC50 of standard peptide / IC50 of test peptide) (ratio to standard peptide),HLA-A*0301 (human) [1],0.0008
LILALLRYK (modifications not checked) [HPV45 E1 267 peptide … (SEQ ID NO: 43681)],relative binding ratio (IC50 of standard peptide / IC50 of test peptide),HLA-A*1101 (human) [2],0.18
"EGTGCNGWF (modifications not checked) [HPV18 E1 peptide … (position 10, 9 amino acids)]",relative binding ratio (IC50 of standard peptide / IC50 of test peptide) (ratio to standard peptide),HLA-A*0301 (human) [3],0.0008
"EGTGCNGWFY (modifications not checked) [HPV16 E1 peptide … (position 11, 10 amino acids)]",binding affinity ratio relative to the standard peptide (IC50 standard / IC50 test),HLA-A*0301 (human) [1],0.0005
WPYLESRITV (modifications not checked) [HPV18 E1 583 peptide …],binding affinity ratio (IC50 of standard peptide / IC50 of test peptide),HLA-B*5401 (human),0.024
same,binding affinity ratio (IC50 of standard peptide / IC50 of test peptide),HLA-B*5101 (human),0.055
same,binding affinity ratio (IC50 of standard peptide / IC50 of test peptide),HLA-B*0702 (human),0.0067
same,binding affinity ratio (IC50 of standard peptide / IC50 of test peptide),HLA-B*5301 (human),0.014
same,binding affinity ratio (IC50 of standard peptide / IC50 of test peptide),HLA-B*3501 (human),0.0066
GVLILALLR (modifications not checked) [HPV45 E1 265 … (SEQ ID NO: 43630)],relative binding ratio (IC50 of standard peptide / IC50 of test peptide),HLA-A*1101 (human) [4],0.14
"QLKCPPLLI (modifications not checked) [HPV31 E1 peptide … (position 536, 9 amino acids)]",relative binding ratio (IC50 of standard peptide / IC50 of test peptide),[5],0.0049
"GTGCNGWFYV (modifications not checked) [HPV31 E1 peptide … (position 11, 10 amino acids)]",relative binding ratio (IC50 of standard peptide / IC50 of test peptide) (ratio to standard peptide),HLA-A*0201 (human) [6],0.0006
"WLQPLADAK (modifications not checked) [HPV16 E1 peptide … (position 509, 9 amino acids)]",relative binding ratio (A*1101),HLA-A*1101 (human) [2],0.0002
same,relative binding ratio (IC50 of standard peptide / IC50 of test peptide),HLA-A*0301 (human) [7],0.0005
same,binding affinity ratio (relative to standard peptide),HLA-A*1101 (human) [8],0.0002
same,binding affinity ratio (relative to standard peptide),HLA-A*0301 (human) [9],0.0005
IAEGFKTLI (modifications not checked) [HPV18 E1 254 peptide …],binding affinity ratio (IC50 of standard peptide / IC50 of test peptide),HLA-A*0201 (human) [10],0.0003
WLQPLADAK (modifications not checked) [HPV31 E1 489 peptide … (SEQ ID NO: 41921)],relative binding ratio (IC50 of standard peptide / IC50 of test peptide),HLA-A*1101 (human) [4],0.0002
ILYAHIQCL (modifications not checked) [HPV18 E1 266 peptide …],binding affinity ratio (IC50 of standard peptide / IC50 of test peptide),HLA-A*0201 (human) [10]; remark: other sources report otherwise,0.081
LIRCINCQK (modifications not checked),binding affinity ratio (IC50 of standard peptide / IC50 of test peptide),HLA-A*1101 (human) [11],0.0009
same,binding affinity ratio (IC50 of standard peptide / IC50 of test peptide),HLA-A*0301 (human) [12],0.0025
same,binding affinity ratio (IC50 of standard peptide / IC50 of test peptide),HLA-A*3301 (human),0.0041
same,binding affinity ratio (IC50 of standard peptide / IC50 of test peptide),HLA-A*6801 (human),0.0021
same,binding affinity ratio (IC50 of standard peptide / IC50 of test peptide),HLA-A*3101 (human),0.0012
ILLTTNIHPA (modifications not checked) [HPV18 E1 569 peptide …],binding affinity ratio (IC50 of standard peptide / IC50 of test peptide),HLA-A*0201 (human) [10],0.08
"STLRLCVQST (modifications not checked) [HPV31 E7 peptide … (position 63, 10 amino acids)]",relative binding ratio (IC50 of standard peptide / IC50 of test peptide),HLA-A*0201 (human) [6],0.0012
KAAMLAKFK (modifications not checked) [HPV16 E1 204 …],binding affinity ratio (IC50 of standard peptide / IC50 of test peptide) (ratio to standard peptide),HLA-A*0301 (human) [13],0.11
same,relative binding ratio (IC50 of standard peptide / IC50 of test peptide),HLA-A*1101 (human) [14],0.18
GDTPEWIQR (modifications not checked) [HPV16 E1 334 …],binding affinity ratio (IC50 of standard peptide / IC50 of test peptide) (ratio to standard peptide),HLA-A*0301 (human) [13],0.0008
same,relative binding ratio (IC50 of standard peptide / IC50 of test peptide),HLA-A*1101 (human) [14],0.0002
TLGIVCPI (modifications not checked) [HPV16 E7 86 TLGIVCPI],binding affinity ratio (IC50 of standard peptide / IC50 of test peptide),HLA-A*0203 (human),0.0005
same,binding affinity ratio (IC50 of standard peptide / IC50 of test peptide),HLA-A*0206 (human),0.54
same,binding affinity ratio (IC50 of standard peptide / IC50 of test peptide),HLA-A*0201 (human) [15],0.15
"EGTGCNGWF (modifications not checked) [HPV16 E1 peptide … (position 11, 9 amino acids)]",binding affinity ratio relative to the standard peptide (IC50 standard / IC50 test),HLA-A*0301 (human) [1],0.0008
GDTPEWIQR (modifications not checked) [HPV45 E1 327 … (SEQ ID NO: 43619)],relative binding ratio (IC50 of standard peptide / IC50 of test peptide),HLA-A*1101 (human) [4],0.0002
"TLRLCVQST (modifications not checked) [HPV31 E7 peptide … (position 64, 9 amino acids)]",relative binding ratio (IC50 of standard peptide / IC50 of test peptide),HLA-A*0201 (human) [6],0.0061
"EGTGCNGWFY (modifications not checked) [HPV18 E1 peptide … (position 10, 10 amino acids)]",relative binding ratio (IC50 of standard peptide / IC50 of test peptide) (ratio to standard peptide),HLA-A*0301 (human) [3],0.0005
QPFILYAHI (modifications not checked) [HPV18 E1 263 peptide …],binding affinity ratio (IC50 of standard peptide / IC50 of test peptide),HLA-B*5401 (human),0.0034
same,binding affinity ratio (IC50 of standard peptide / IC50 of test peptide),HLA-B*5101 (human),0.21
same,binding affinity ratio (IC50 of standard peptide / IC50 of test peptide),HLA-B*0702 (human),0.0002
same,binding affinity ratio (IC50 of standard peptide / IC50 of test peptide),HLA-B*5301 (human),0.0017
same,binding affinity ratio (IC50 of standard peptide / IC50 of test peptide),HLA-B*3501 (human),0.0003
GMVVLLLVR (modifications not checked) [HPV16 E1 272 …],binding affinity ratio (IC50 of standard peptide / IC50 of test peptide) (ratio to standard peptide),HLA-A*0301 (human) [13],0.0036
same,relative binding ratio (IC50 of standard peptide / IC50 of test peptide),HLA-A*1101 (human) [14],0.0082
"CMCCKCEARI (modifications not checked) [… (HPV18 E7, position 63, 10 amino acids)]",relative binding ratio (IC50 of standard peptide / IC50 of test peptide),HLA-A*2402 (human),0.0001
YAVCDKCLK (modifications not checked),binding affinity ratio (IC50 of standard peptide / IC50 of test peptide),HLA-A*1101 (human) [11],0.001
same,binding affinity ratio (IC50 of standard peptide / IC50 of test peptide),HLA-A*0301 (human) [12],0.0003
same,binding affinity ratio (IC50 of standard peptide / IC50 of test peptide),HLA-A*6801 (human),0.012
same,binding affinity ratio (IC50 of standard peptide / IC50 of test peptide),HLA-A*3101 (human),0.0015
CMSCCRSSR (modifications not checked),binding affinity ratio (IC50 of standard peptide / IC50 of test peptide),HLA-A*1101 (human) [11],0.0001
same,binding affinity ratio (IC50 of standard peptide / IC50 of test peptide),HLA-A*0301 (human) [12],0.0033
same,binding affinity ratio (IC50 of standard peptide / IC50 of test peptide),HLA-A*3301 (human),0.12
same,binding affinity ratio (IC50 of standard peptide / IC50 of test peptide),HLA-A*6801 (human),0.0011
same,binding affinity ratio (IC50 of standard peptide / IC50 of test peptide),HLA-A*3101 (human),0.082
"IHDIILECVY (modifications not checked) [… (HPV16 E6, position 30, 10 amino acids)]",relative binding ratio (IC50 of standard peptide / IC50 of test peptide),HLA-A*0101 (human) [16],0.028
"DCATMCRHY (modifications not checked) [HPV16 E1 peptide … (position 404, 9 amino acids)]",relative binding ratio (IC50 of standard peptide / IC50 of test peptide) (ratio to standard peptide),HLA-A*0101 (human) [16],0.0011
same,relative binding ratio (IC50 of standard peptide / IC50 of test peptide) (ratio to standard peptide),HLA-A*0301 (human) [17],0.0001
QPPKLRSSVA (modifications not checked) [HPV18 E1 315 peptide …],binding affinity ratio (IC50 of standard peptide / IC50 of test peptide),HLA-B*5401 (human),0.039
same,binding affinity ratio (IC50 of standard peptide / IC50 of test peptide),HLA-B*5101 (human),0.0002
same,binding affinity ratio (IC50 of standard peptide / IC50 of test peptide),HLA-B*5301 (human),0.0002
same,binding affinity ratio (IC50 of standard peptide / IC50 of test peptide),HLA-B*3501 (human),0.0003
"LSFVCPWCA (modifications not checked) [HPV45 E7 peptide … (position 95, 9 amino acids)]",relative binding ratio (IC50 of the standard peptide / IC50 of the test peptide),HLA-A*0301 (human) [3],0.0005
ISEYRHYCY (modifications not checked) [HPV16 E6 80 …],binding affinity ratio (IC50 of standard peptide / IC50 of test peptide),HLA-A*0101 (human) [18],0.31
"SLACSWGMV (modifications not checked) [HPV31 E1 peptide … (position 246, 9 amino acids)]",relative binding ratio (IC50 of standard peptide / IC50 of test peptide),[5],0.082
YMLDLQPETT (modifications not checked) [HPV16 E7 11 …],binding affinity ratio (IC50 of standard peptide / IC50 of test peptide),HLA-A*0203 (human),0.0001
same,binding affinity ratio (IC50 of standard peptide / IC50 of test peptide),HLA-A*0206 (human),1.7
same,binding affinity ratio (IC50 of standard peptide / IC50 of test peptide),HLA-A*0201 (human) [15],0.15
"HYSDSVYGDTL (modifications not checked) [… (HPV18 E6, position 80, 11 amino acids)]",relative binding ratio (IC50 of standard peptide / IC50 of test peptide),HLA-A*2402 (human),0.0069
"VVLLLVRYK (modifications not checked) [HPV16 E1 peptide … (position 274, 9 amino acids)]",relative binding ratio (A*1101),HLA-A*1101 (human) [2],0.36
same,relative binding ratio (IC50 of standard peptide / IC50 of test peptide),HLA-A*0301 (human) [7],1
same,binding affinity ratio (relative to standard peptide),HLA-A*1101 (human) [8],0.36
same,binding affinity ratio (relative to standard peptide),HLA-A*0301 (human) [9],1
"KISEYRHYCY (modifications not checked) [… (HPV16 E6, position 79, 10 amino acids)]",binding affinity ratio (IC50 of standard peptide / IC50 of test peptide) (ratio to standard peptide),HLA-A*1101 (human) [19],0.0038
same,relative binding ratio (IC50 of standard peptide / IC50 of test peptide),HLA-A*0101 (human) [16],0.009

# — patent publication US7026443
